Measurements as given in US20100330158A1, “PROTEIN-ASSISTED DRUG DELIVERY SYSTEM FOR THE TARGETED ADMINISTRATION OF ACTIVE AGENTS” (InnoPharma, LLC, priority 2009, published 2010).

Test system: bovine brain microvascular endothelial cells (BBMVECs)
Assay: Flow cytometry binding of FITC-labeled proteins to BBMVECs
Settings: for shift in fluorescence: FITC-labeled protein incubated with BBMVECs at 4° C. (on ice) for 15 minutes; for % of the cells that bind (strongly) to the protein: BBMVECs, 15 minutes
Method: The three E. coli recombinant proteins (SfaS, SfaA, OmpA) produced in Example 1 are labeled with fluorescein isothiocyanate (FITC) to allow fluorescent detection of proteins. The proteins are labeled using the Thermo-Fisher Pierce FITC labeling kit (Thermo Fisher Scientific Inc., Waltham, Mass.) according to the manufacturer's protocol. The amounts of protein used for the labeling reaction are 0.75 mg (SfaS), 0.8 mg (OmpA) and 1.25 mg (SfaA).
Flow cytometry is performed by incubating the labeled proteins with BBMVECs. These cells are procured from Cell Applications, Inc (San Diego, Calif.). Cells are mixed with FITC proteins (individually) and incubated on ice or at 37° C. for 15 minutes, then washed, and sorted with flow cytometry.

Molecule	shift in fluorescence	% of the cells that bind (strongly) to the protein (4° C. (on ice)) [%]	% of the cells that bind (strongly) to the protein (37° C.) [%]
SfaS: Recombinant His-tagged S fimbriae protein sfaS variant from E. coli CFT073, SEQ ID NO: 2 (protein, His tag; E. coli) MASMTGGQQMGRGSMVDTTITVTGRVLPRTCTIGNGGNPNATVVLDNAYTSDLIAANSTSQWKNFSLTLTNCQNVNNVTATFGGTAENTNYYRNTGDATNIMVELQEQGNGNTPLKVGSTKVVTVSNGQATFNLKVRAVSKGNAGAGSINSQITVTYTYALEHHHHHH	less significant shift		
SfaA: Recombinant His-tagged S fimbriae protein sfaA variant from E. coli CFT073, SEQ ID NO: 4 (protein, His tag; E. coli) MKYLLPTAAAGLLLLAAQPAMAMDIGINGTGSMGTVHFKGEVVNAACAVNTNSFDQTVNLGQVRSERLKVDGAKSNPVGFTIELNDCDSQVSAGAGIVFSGPAVTGKTDVLALQSSAAGSATNVGVQTDHTGKVVPLDGTASSTFTLTDGTNKIPFQAVYYATGQATAGIANADATFKVQYQLEHHHHHH	significant shift	~37	~10
